Each block holds one molecule with its values, some of them ahead of it.
What was measured:
[1] = tested on: B cells gated from PBMCs of healthy donors; assay: Trogocytosis: surface antigen levels on B cells after overnight treatment of PBMCs, flow cytometry; type: cell-based, human
Method: (§1) Peripheral blood mononuclear cells (PBMCs) obtained from healthy donors were incubated overnight (16-24 h) with 10 μg/mL of either epratuzumab or an isotype control mAb (hMN-14) and the relative levels of various antigens on the surface of the B cells were analyzed by flow cytometry. PBMCs from heparinized whole blood of normal donors were isolated by density gradient centrifugation on UNI-SEP tubes (Novamed Ltd, Israel). PBMCs were reconstituted in RPMI media supplemented with 10% heat inactivated fetal bovine serum and plated at a cell density of 1.5×10^6/mL in non-tissue culture treated 48-well plates. […] Stained cells were analyzed by flow cytometry on a FACSCALIBUR® (BD Biosciences) using Flowjo (V7.6.5) software. Initially, the lymphocyte population was gated by side vs. forward scattering, and B cells were further gated from this population with the CD19 signal. The mean fluorescence intensity (MFI), obtained with fluorochrome-conjugated antibodies to various cell surface antigens, on the gated B cells was calculated following treatment with epratuzumab, hMN-14 or without antibody. PBMCs from 16 healthy donors were assessed in various experiments.

[2] = tested on: B cells in PBMCs; assay: Relative B cell count after overnight treatment of PBMCs; type: cell-based, human
Method: as §1

[3] = tested on: NHL patients; conditions: cited from earlier work
[4] = tested on: subjects; conditions: reported, Morchhauser et al., 2009, Goldenberg et al., Robak & Robak, 2011; cited from earlier work
[5] = target: T1, CD22 (Homo sapiens, UniProt P20273); assay: Binding affinity for CD22+ Daudi cells determined by ELISA (FIG. 2); conditions: CD22+ Daudi cells, FIG. 2
T1 construct: endogenous in cells; host or cells: Daudi (Burkitt lymphoma) cells
Method: FIG. 2. Comparative binding affinity for CD22+ Daudi cells of hLL2 IgG, hRFB4 IgG, chimeric RFB4 conjugated to AD2 peptide, and hMN-14 IgG, as determined by ELISA. The binding affinity of hRFB4 as determined for Daudi cells is about 10-fold higher than that of hLL2 and about 30% higher than the chimeric RFB4.
The hRFB4 antibody was prepared as described above, resulting in a humanized anti-CD22 antibody with variable region sequences as shown in FIG. 1A and FIG. 1B (SEQ ID NO:7 and SEQ ID NO:8). After expression, the binding affinity or CD22+ Daudi cells was compared to that of the hLL2 antibody, comprising the same FR and constant region sequences but different CDR sequences, and to the chimeric RFB4 antibody, comprising the same CDR sequences but different FR and constant region sequences.

[6] = tested on: Daudi cells; assay: Dose-response of trogocytosis of CD22 and CD19 from Daudi cells (FIG. 6A, 6B); type: cell-based, human
[7] = tested on: NHL Burkitt cell lines (Daudi, Raji, and Ramos); assay: Surface markers on NHL Burkitt cell lines, isolated or spiked into normal PBMCs; type: cell-based, human
Text: This mechanism of action may explain the limited effectiveness of high doses of epratuzumab compared to lower doses in patients with SLE.

[8] = tested on: patients with SLE who have failed at least one previous therapy; assay: Combination therapy of SLE with hRFB4 and hLL2; type: in vivo, human; conditions: single antibody alone, same dosage and schedule
Method: Patients with SLE who have failed at least one previous therapy receive combination therapy with 160 mg each of hRFB4 and hLL2 (epratuzumab), administered s.c. in 2 injections weekly for four weeks. Control groups receive hRFB4 alone, hLL2 alone or irrelevant antibody (hMN-14) at the same dosage and schedule. […] All serum samples evaluated for anti-human antibodies (HAHA) are negative.

[9] = Antibody-dependent cell-mediated cytotoxicity in vitro; type: cell-based
[10] = Complement-dependent cytotoxicity in vitro; type: cell-based
[11] = tested on: circulating B cells; conditions: may be overestimated due to use of CD19+ cells to measure B cells; cited from earlier work
[12] = 4 doses of 80, 160 or 320 mg s.c. every two weeks
[13] = 10 μg/mL, overnight, PBMCs of healthy donors

Molecule: veltuzumab: humanized IgG1 antibody against CD20
reduction of CD19, CD21 and CD79b compared with epratuzumab ([1]; PBMCs of healthy donors, overnight, FIG. 9): greater extent than epratuzumab
reduction of the B cell count ([2]; 10 μg/mL, overnight, PBMCs of healthy donors, FIG. 9): 40%
objective response in the 80 mg dosage group ([3]; 80 mg): 67%
patients showing a complete response in the 80 mg dosage group ([3]; 80 mg): one of three
CR/CRu (complete response) rate [3, 12]: 24%
objective response rate (CR+CRu+PR) [3, 12]: 47%
objective responses continued for 60 weeks ([3]; 60 weeks): Four out of eight
HAHA in serum samples ([3]; all serum samples evaluated): negative
safety ([3]; s.c.): Only occasional, mild to moderate and transient injection reactions
immunogenicity compared with rituximab [4]: less immunogenic in subjects than rituximab

Kd [5]: 2 nM
B1: hLL2: humanized anti-CD22 antibody hLL2 (epratuzumab) (antibody, V domains shown)
VH: QVQLQQSGAEVKKPGSSVKVSCKASGYTFTSYWLHWVRQAPGQGLEWIGYIYPRNDYTEYNQNFKDKATITADESTNTAYMELSSLRSEDTAFYFCARRDITTFYWGQGTTVTVSS
VL: DIQLTQSPSSLSASVGDRVTMSCKSSQSVLYSANHKNYLAWYQQKPGKAPKLLIYWASTRESGVPSRFSGSGSGTDFTFTISSLQPEDIATYYCHQYLSSWTFGGGTKVQIKR
CD19 level on B cells, % of untreated or control mAb [1, 13]: 50%
CD20 level on B cells, % of untreated or control mAb [1, 13]: 82%
CD21 level on B cells, % of untreated or control mAb [1, 13]: 52%
CD22 level on B cells, % of untreated or control mAb [1, 13]: 10%
CD62L level on B cells, % of untreated or control mAb [1, 13]: 73%
CD79b level on B cells, % of untreated or control mAb [1, 13]: 70%
change of CD27 (on CD27+ B cells), CD40, CD44, CD45, β7 integrin and LFA-1 (CD11a and CD18) [1, 13]: < 10 % change
responsiveness of CD27− naive B cells compared to CD27+ memory B cells ([1]; CD19, PBMCs from 3 healthy donors): more responsive
time course of the reduction of surface antigens ([1]; PBMCs of healthy donors): essentially complete within a few hours
B cell depletion ([2]; either at 10 μg/mL or 1 mg/mL, ex vivo): did not cause significant B cell depletion
minimal concentration to induce the maximal level of trogocytosis of CD19 ([6]; CD19 from Daudi cell, FIG. 6B): 10 ng/mL
minimal concentration to induce the maximal level of trogocytosis of CD22 ([6]; CD22 from Daudi cell, FIG. 6A): 10 ng/mL
concentration inducing the maximal level of trogocytosis of CD19 and CD22 ([6]; dose-response curve, FIG. 6A and 6B): 10 ng/mL
reduction of CD22, CD19, CD21, CD20 and CD79b on the surface of B cells ([7]; PBMCs from normal donors or lupus patients, and NHL lines spiked into normal PBMCs): substantial reduction
surface markers decreased in isolated NHL cells ([7]; isolated NHL cells, no effector cells): only CD22, but not other surface markers, was appreciably decreased
objective responses [8]: Objective responses are observed
antibody-dependent cell-mediated cytotoxicity [9]: modest, but significant
complement-dependent cytotoxicity [10]: negligible
depletion of circulating B cells in patients, on average [11]: 35%
